Legend:
Conditions in all cases: remark: other sources report otherwise
HLA-A*1101 (human) [1] = experiment: competitive inhibition of 125I-A3con binding to purified HLA
HLA-A*3101 (human) [2] = experiment: as above
HLA-A*0301 (human) [3] = experiment: as above
HLA-B*4002 (human) = experiment: competition with radiolabeled probe peptide, purified HLA
HLA-A*1101 (human) [4] = experiment: competition vs 125I probe, purified HLA
HLA-A*0301 (human) [5] = experiment: competition vs 125I probe, purified HLA
HLA-A*3101 (human) [6] = experiment: competition vs 125I probe, purified HLA
HLA-A*6801 (human) = experiment: competition vs 125I probe, purified HLA
HLA-A*3301 (human) = experiment: competition vs 125I probe, purified HLA
HLA-B*5401 (human) = experiment: competition vs 125I probe, purified HLA
HLA-B*5301 (human) = experiment: competition vs 125I probe, purified HLA
HLA-B*0702 (human) = experiment: inhibition of 125I-[..] probe, purified HLA
HLA-B*3501 (human) = experiment: inhibition of 125I-B35con2 probe, purified HLA

B1: MAGE2.69.K9 … (peptide)
peptide: SSFSTTINK
- IC50 (HLA-A*1101 (human) [1]): 3 nM

B2: MAGE3.138.V2 … (peptide)
peptide: YVFPVIFSK
- IC50 (HLA-A*1101 (human) [1]): 3 nM

B3: p53.101.K10 … (peptide)
peptide: KTYQGSYGFK
- IC50 (HLA-A*1101 (human) [1]): 14 nM

B4: p53.124 … (peptide)
peptide: CTYSPALNK
- IC50 (HLA-A*3101 (human) [2]): 1500 nM

B5: p53.154 … (peptide)
peptide: GTRVRAMAIYK
- IC50 (HLA-A*0301 (human) [3]): 10 nM

B6: p53.273 RVCACPGR (peptide)
peptide: RVCACPGR
- IC50 (HLA-A*0301 (human) [3]): 31 nM

B7: … (peptide)
peptide: GERLPQPPICTI
- IC50 (HLA-B*4002 (human)): 9.5 nM

B8: MAGE2.69.K9 (peptide)
peptide: SSFSTTINK
- IC50 (HLA-A*1101 (human) [4]): 3 nM

B9: MAGE2.71 (peptide)
peptide: FSTTINYTLWR
- IC50 (HLA-A*0301 (human) [5]): 1000 nM

B10: MAGE2.73.V2K9 (peptide)
peptide: TVINYTLWK
- IC50 (HLA-A*3101 (human) [6]): 9000 nM

B11: MAGE2/3.116 (8-mer) (peptide)
peptide: LVHFLLLK
- IC50 (HLA-A*1101 (human) [4]): 40 nM
- IC50 (HLA-A*6801 (human)): 400 nM

B12: MAGE2/3.116 (9-mer) (peptide)
peptide: LVHFLLLKY
- IC50 (HLA-A*6801 (human)): 8000 nM

B13: MAGE2.226 (peptide)
peptide: SMLEVFEGR
- IC50 (HLA-A*3301 (human)): 9 nM

B14: MAGE2.277 (peptide)
peptide: ALIETSYVK
- IC50 (HLA-A*3101 (human) [6]): 900 nM

B15: MAGE3.138 (peptide)
peptide: YFFPVIFSK
- IC50 (HLA-A*0301 (human) [5]): 5000 nM

B16: MAGE3.138.V2 (peptide)
peptide: YVFPVIFSK
- IC50 (HLA-A*1101 (human) [4]): 3 nM

B17: MAGE3.138.V2R9 (peptide)
peptide: YVFPVIFSR
- IC50 (HLA-A*0301 (human) [5]): 36 nM
- IC50 (HLA-A*3101 (human) [6]): 6 nM

B18: MAGE3.189 (peptide)
peptide: LLGDNQIMPK
- IC50 (HLA-A*0301 (human) [5]): 500 nM

B19: p53.101.K10 (peptide)
peptide: KTYQGSYGFK
- IC50 (HLA-A*1101 (human) [4]): 14 nM

B20: p53.101.V2 (peptide)
peptide: KVYQGSYGFR
- IC50 (HLA-A*0301 (human) [5]): 38 nM
- IC50 (HLA-A*1101 (human) [4]): 62 nM
- IC50 (HLA-A*3101 (human) [6]): 72 nM
- IC50 (HLA-A*6801 (human)): 40 nM

B21: p53.101.V2K10 (peptide)
peptide: KVYQGSYGFK
- IC50 (HLA-A*0301 (human) [5]): 33 nM
- IC50 (HLA-A*1101 (human) [4]): 9.2 nM
- IC50 (HLA-A*6801 (human)): 38 nM

B22: p53.124 (peptide)
peptide: CTYSPALNK
- IC50 (HLA-A*3101 (human) [6]): 1500 nM

B23: p53.132 (peptide)
peptide: KMFCQLAK
- IC50 (HLA-A*0301 (human) [5]): 29 nM
- IC50 (HLA-A*1101 (human) [4]): 17 nM
- IC50 (HLA-A*6801 (human)): 727 nM

B24: p53.154 (peptide)
peptide: GTRVRAMAIYK
- IC50 (HLA-A*0301 (human) [5]): 10 nM

B25: p53.154.V2 (peptide)
peptide: GVRVRAMAIYK
- IC50 (HLA-A*0301 (human) [5]): 58 nM

B26: p53.156 (peptide)
peptide: RVRAMAIYK
- IC50 (HLA-A*3101 (human) [6]): 5 nM

B27: p53.156.R9 (peptide)
peptide: RVRAMAIYR
- IC50 (HLA-A*3101 (human) [6]): 9 nM

B28: p53.240 (9-mer) (peptide)
peptide: SSCMGGMNR
- IC50 (HLA-A*0301 (human) [5]): 550 nM
- IC50 (HLA-A*1101 (human) [4]): 4.3 nM

B29: p53.240 (10-mer) (peptide)
peptide: SSCMGGMNRR
- IC50 (HLA-A*1101 (human) [4]): 70 nM

B30: p53.273 (8-mer) (peptide)
peptide: RVCACPGR
- IC50 (HLA-A*0301 (human) [5]): 31 nM

B31: p53.375.V2 (peptide)
peptide: SVSRHKKLMFK
- IC50 (HLA-A*0301 (human) [5]): 33 nM

B32: p53.376.V2R11 (peptide)
peptide: SVSRHKKLMFR
- IC50 (HLA-A*6801 (human)): 500 nM

B33: CEA.13 (peptide)
peptide: IPWQRLLLTA
- IC50 (HLA-B*5401 (human)): 3.2 nM

B34: Her2/neu.921I8 (peptide)
peptide: KPYDGIPI
- IC50 (HLA-B*5301 (human)): 51.7 nM

B35: MAGE3.77.I8 YPLWSQSI (peptide)
peptide: YPLWSQSI
- IC50 (HLA-B*0702 (human)): 60 nM

B36: p53.84 APAPAPSW (peptide)
peptide: APAPAPSW
- IC50 (HLA-B*3501 (human)): 32.7 nM
